Source: paper PMC11395145, “The Archetypal Gamma-Core Motif of Antimicrobial Cys-Rich Peptides Inhibits H^+-ATPases in Target Pathogens” (International Journal of Molecular Sciences, 2024)

Assays:
P. aeruginosa cells [1] = assay: Oxygen consumption measurement (Clark-type electrode); type: cell-based, Pseudomonas aeruginosa; conditions: 5 × 10^6 cells/mL, peptides at IC50, piericidin A 32 μM, at least 30 min, 25 °C
Procedure: (§1) Figure 3 Effect of cellular respiration on the microbicidal activity of hLf γ-core-containing peptides. (A,C) Oxygen consumption was measured in C. albicans and P. aeruginosa cellular suspensions in the absence (control) or the presence of kaliocin-1 (Kal-1), Kdp15, or human lactoferrin (hLf), and piericidin A (positive control). (B,D) Effect of cellular respiration on the microbicidal activity of hLf γ-core-containing peptides. Cells (10^6 cells/mL) were pre-incubated (15 min, 37 °C) with 32 μM piericidin A and incubated for 90 min at 37 °C with the peptides hLf or BM2. The cell viability was determined by means of the plate counting method. The results are the mean ± SD from duplicates of at least three independent experiments. * p < 0.05, ** p < 0.01, and *** p < 0.001 were used.
(§2) C. albicans or P. aeruginosa cells were grown to the mid-logarithmic phase, washed twice in Tris buffer, and resuspended in the same buffer, as described in [9, 10]. Briefly, cells (5 × 10^6 cells/mL) were pre-incubated for 15 min at 37 °C with the peptides (IC50). […] Oxygen consumption was measured using a Clark-type oxygen electrode (Dual digital-model 20, Rank Brothers Ltd., Cambridge, UK) in a closed jacketed chamber maintained at 25 °C. […] The viability of the cells was determined at 30 min by removing aliquots from the oxygen chambers and plating the subsequent dilutions on SDA or TSA plates.

C. albicans cells [2] = assay: Cell membrane permeability assay (propidium iodide, flow cytometry); type: cell-based, Candida albicans; conditions: 90 min, 37 °C, range of concentrations, PI 9 μM
Procedure: (§3) To determine whether Kal-1 and Kdp15 exert a permeabilizing effect on fungal or bacterial membranes, the cellular influx of the fluorescent nucleic-acid-binding dye propidium iodide (PI) was assessed. As PI itself cannot permeate through an intact phospholipid bilayer, only permeabilized cells take up PI, resulting in DNA intercalation and fluorescence.
(§4) Flow cytometry was used to assess the ability of peptides to permeabilize plasma membranes of cells in incorporation of the DNA intercalating dye propidium iodide (PI). C. albicans or P. aeruginosa cells (10^6 cells/mL) in Tris buffer were incubated with two-fold serially diluted peptides for 90 min at 37 °C and subsequently reincubated with PI (9 μM, final concentration) for 5 min. The suspensions were centrifuged at 1100× g for 10 min and subsequently washed with Tris buffer to remove any unbound PI. The peptide Lfpep was used to disrupt the cytoplasmic membrane (positive control). Cell fluorescence was monitored using a Cytomics FC500 Flow Cytometer (Beckman Coulter Life Sciences, Indianapolis, IN, USA). The PI fluorescence was excited at a wavelength of 488 nm and emission was registered at 610 nm. For each treatment, 20,000 events were measured. Data were acquired and analyzed using CytExpert 2.1 software. Results were expressed as the percentage of PI-positive cells with respect to the unstained cells (control). […]

C. albicans cells [3] = assay: Oxygen consumption measurement (Clark-type electrode); type: cell-based, Candida albicans; conditions: 5 × 10^6 cells/mL, peptides at IC50, piericidin A 32 μM, at least 30 min, 25 °C
Procedure: as §1, §2

[4] = test system: Pseudomonas aeruginosa 10145 (PAO1); assay: Microbicidal (spread-plate cell viability) assay, pseudomonacidal activity; type: cell-based; conditions: Tris buffer with 50 mM KCl vs without
Procedure: (§5) First, we tested the antimicrobial activity of Kal-1 and a shorter Kal-1-derived peptide (Kdp15), both containing the complete γ-core signature of human lactoferrin, against C. albicans and P. aeruginosa. Microbicidal (cidal) activity was determined after 90 min of incubation (37 °C; pH 7.4) with a range of concentrations of each hLf-derived peptide.
Figure 1 Cell viability and membrane permeabilization assays. C. albicans or P. aeruginosa (10^6 cells/mL) were incubated (90 min, 37 °C) with each peptide/protein at the indicated concentrations. Aliquots were plated on SDA or TSB, and colonies were counted after 24–48 h (C. albicans) or 24 h (P. aeruginosa). At each point, samples were stained with propidium iodide (PI) and intracellular PI incorporation, indicative of membrane permeabilization, was quantified by flow cytometry. The relative cell viability (blue lines) and cellular permeabilization (red lines) were calculated as the percentage of untreated cells. […]
Microbial susceptibility to the peptides was determined in a spread-plate assay as described previously. […] The cell viability values, expressed as colony forming units (CFUs), were determined relative to incubation without added peptides and represent the mean ± standard deviation (±SD) of at least three independent determinations. […]

P. aeruginosa cells [5] = assay: Cell membrane permeability assay (propidium iodide, flow cytometry); type: cell-based, Pseudomonas aeruginosa; conditions: 90 min, 37 °C, range of concentrations, PI 9 μM
Procedure: as §3, §4

C. albicans cells [6] = assay: Measurement of intracellular ATP (BacTiter-Glo); type: cell-based, Candida albicans; conditions: C. albicans 10^6 cells/mL, candidacidal concentration, 90 min, 37 °C; BM2 0.25 μM
Procedure: Total ATP was measured by using the BacTiter-Glo^TM Microbial Cell Viability Assay (Promega Co., Madison, WI, USA) according to the manufacturer’s instructions. […] Aliquots (100 μL) were incubated (90 min at 37 °C) with kaliocin-1, Kdp15, or human lactoferrin and the BM2 peptide (positive control). One hundred microliters of incubation mix was transferred into a 96-well opaque white plate, mixed with an equal volume of the BacTiter-Glo reagent, and incubated for 15 min in the dark. The reagent used a thermostable luciferase to produce luminescence in an ATP-dependent manner. The emitted luminescence was detected by using a Varioskan Flash multimode reader (Thermo Scientific, Waltham, MA, USA) with a 10 s of shaking and 1 s integration time. A calibration curve was prepared for each experiment, with ATP standards ranging from 1 to 1000 nM. For assays performed in the presence of the BM2 peptide, samples were preincubated with 0.25 μM BM2 for 30 min at 37 °C. All the tests were performed in triplicate at least four times.

[7] = test system: Pseudomonas aeruginosa 10145 (PAO1); conditions: used in control assays; cited from earlier work
Procedure: as §5, with “peptide. The hLf γ-core-containing peptides were microbicidal in a concentration-dependent way (Figure 1). […] The IC50 es ...” for “peptide.”

[8] = test system: Candida albicans ATCC 10231; conditions: used in control assays; cited from earlier work
Procedure: as §5, with “peptide. The hLf γ-core-containing peptides were microbicidal in a concentration-dependent way (Figure 1). […] The IC50 es ...” for “peptide.”

[9] = test system: Candida albicans ATCC 10231; assay: Microbicidal (spread-plate cell viability) assay, candidacidal activity; type: cell-based
Procedure: as §5
Figure 1 Cell viability and membrane permeabilization assays. C. albicans or P. aeruginosa (10^6 cells/mL) were incubated (90 min, 37 °C) with each peptide/protein at the indicated concentrations. Aliquots were plated on SDA or […], and colonies were counted after 24–48 h (C. albicans) or 24 h (P. aeruginosa). At each point, samples were stained with propidium iodide (PI) and intracellular PI incorporation, indicative of membrane permeabilization, was quantified by flow cytometry. The relative cell viability (blue lines) and cellular permeabilization (red lines) were calculated as the percentage of untreated cells. Human lactoferrin (hLf) and the peptide Lfpep were used as negative and positive controls of cellular permeabilization, respectively.
Microbial susceptibility to the peptides was determined in a spread-plate assay as described previously. Briefly, two-fold serially diluted peptides were incubated (37 °C) with approximately 10^6 cells/mL in Tris buffer (10 mM Tris-HCl, pH 7.4). After 90 min of incubation with the peptides, aliquots were removed and plated in duplicate on an appropriate agar plate for each species (SDA for C. albicans, TSA for P. aeruginosa). The plates were incubated for 24–48 h at 30 °C (C. albicans) or 24 h at 37 °C (P. aeruginosa) for enumeration. The cell viability values, expressed as colony forming units (CFUs), were determined relative to incubation without added peptides and represent the mean ± standard deviation (±SD) of at least three independent determinations. For inhibition assays, the cell suspensions were preincubated (15 min at 37 °C) with the corresponding inhibitors before the addition of peptides. […]

B1: hLf: Recombinant human apo-lactoferrin, PM H^+-ATPase inhibitor control (protein, UniProt P02788 20-710, looked up)
Lactotransferrin: GRRRSVQWCAVSQPEATKCFQWQRNMRKVRGPPVSCIKRDSPIQCIQAIAENRADAVTLDGGFIYEAGLAPYKLRPVAAEVYGTERQPRTHYYAVAVVKKGGSFQLNELQGLKSCHTGLRRTAGWNVPIGTLRPFLNWTGPPEPIEAAVARFFSASCVPGADKGQFPNLCRLCAGTGENKCAFSSQEPYFSYSGAFKCLRDGAGDVAFIRESTVFEDLSDEAERDEYELLCPDNTRKPVDKFKDCHLARVPSHAVVARSVNGKEDAIWNLLRQAQEKFGKDKSPKFQLFGSPSGQKDLLFKDSAIGFSRVPPRIDSGLYLGSGYFTAIQNLRKSEEEVAARRARVVWCAVGEQELRKCNQWSGLSEGSVTCSSASTTEDCIALVLKGEADAMSLDGGYVYTAGKCGLVPVLAENYKSQQSSDPDPNCVDRPVEGYLAVAVVRRSDTSLTWNSVKGKKSCHTAVDRTAGWNIPMGLLFNQTGSCKFDEYFSQSCAPGSDPRSNLCALCIGDEQGENKCVPNSNERYYGYTGAFRCLAENAGDVAFVKDVTVLQNTDGNNNEAWAKDLKLADFALLCLDGKRKPVTEARSCHLAMAPNHAVVSRMDKVERLKQVLLHQQAKFGRNGSDCPDKFCLFQSETKNLLFNDNTECLARLHGKTTYEKYLGPQYVAGITNLKKCSTSPLLEACEFLRK
modifications: apo form
oxygen consumption of P. aeruginosa in presence of the substance (P. aeruginosa cells [1]): inability of the native protein hLf to inhibit | PI fluorescent cells (plasma membrane permeabilization), C. albicans (C. albicans cells [2]): not significantly increased | oxygen consumption of C. albicans in presence of the substance (C. albicans cells [3]): inability of the native protein hLf to inhibit | effect of high external K^+ on pseudomonacidal activity [4]: seemed to protect | PI fluorescent cells (plasma membrane permeabilization), P. aeruginosa (P. aeruginosa cells [5]): not significantly increased | increment in intracellular ATP (iATP) level compared to untreated control (C. albicans cells [6]): ~ 6 fold | previously reported microbicidal concentration against P. aeruginosa [7]: 1 µM | previously reported microbicidal concentration against C. albicans [8]: 5 µM | IC50 ([9]; 90 min, 37 °C, 10 mM Tris-HCl pH 7.4, 10^6 cells/mL, CFU plating, estimated, read-out: IC50 (concentration that caused 50% reduction in viable counts) against C. albicans): 3000 nM | effect of high external K^+ on candidacidal activity ([9]; Tris buffer with 50 mM KCl vs without): seemed to protect | effect of Tok1p K^+ channel block (TEA^+) on candidacidal activity ([9]; cells pre-incubated 15 min with 10 mM TEA^+): less susceptible
